Source: paper PMC5307367 (2017)

Biological target: T1, recombinant His-tagged wild-type ZPR9 (UniProt Q969S3 1-477)
T1 chain: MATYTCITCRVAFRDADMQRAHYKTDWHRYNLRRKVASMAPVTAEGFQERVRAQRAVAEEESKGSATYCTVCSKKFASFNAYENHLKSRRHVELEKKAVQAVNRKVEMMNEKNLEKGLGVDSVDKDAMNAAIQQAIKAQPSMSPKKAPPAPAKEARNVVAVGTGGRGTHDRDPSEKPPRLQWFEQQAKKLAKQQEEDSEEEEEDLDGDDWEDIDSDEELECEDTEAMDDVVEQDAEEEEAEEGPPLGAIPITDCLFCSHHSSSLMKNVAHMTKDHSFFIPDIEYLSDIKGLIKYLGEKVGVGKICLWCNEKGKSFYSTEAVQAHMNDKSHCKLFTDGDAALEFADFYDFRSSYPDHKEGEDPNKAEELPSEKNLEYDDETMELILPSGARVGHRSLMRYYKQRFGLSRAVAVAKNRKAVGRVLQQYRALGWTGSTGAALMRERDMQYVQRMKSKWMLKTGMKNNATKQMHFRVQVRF
Assay: ITC

- Ka: 39100 M⁻¹
B1: recombinant His-tagged wild-type MPK38 (enzyme)
chain: MKDYDELLKYYELYETIGTGGFAKVKLACHVLTGEMVAIKIMDKNALGSDLPRVKTEIDALKSLRHQHICQLYHVLETKNKIFMVLEYCPGGELFDYIISQDRLSEEETRVVFRQILSAVAYVHSQGYAHRDLKPENLLFDENHKLKLIDFGLCAKPKGNKDYHLQTCCGSLAYAAPELIQGKSYLGSEADVWSMGILLYVLMCGFLPFDDDNVMALYKKIMRGKYEVPKWLSPSSILLLQQMLQVDPKKRISMRNLLNHPWVMQDYSCPVEWQSKTPLTHLDEDCVTELSVHHRSSRQTMEDLISSWQYDHLTATYLLLLAKKARGKPARLQLLSFSCGTASTTPKSKNLSLEDMSTSDDNCVAGLIDYELCEDKLLAPKTPQVTKHLAESNHAASKSPAPGVRRAVANKLMDKENVCTPKSSVKNEEQFVFSEPKIPVSKNQYKREIPASPTRFPTPAKARAQCLREAPVRTPGNSAGADTLTTGVISPERRCRSMDVDLNQAHMEDTPKKKGTNVFGSLERGLDKVLTALTRNKKKGSARDGPRKRKLHYNVTTTRLVNPDQLLSEIMAILPKKNVDFVQKGYTLKCQTQSDFGKVTMQFELEVCQLQRPDVVGIRRQRLKGDAWVYKRLVEDILSGCKM
